{
  "source": "patent US8415106B2",
  "about": "“Cell-based screen for agents useful for reducing neuronal demyelination or promoting neuronal remyelination” (Myelin Repair Foundation, Inc., priority 2005, dated 2013)",
  "key": {"[1]": {"system": "mice with EAE", "assay": "MOG 35-55-induced EAE, CNS delivery of INF-γ at EAE onset (PERK+/+ double or PERK+/− triple mice)", "format": "in vivo", "conditions": "for Mean of maximum clinical score (mean ± S.D.): 0-5 point scale; for Mean of maximum clinical score (mean ± S.D.) / Day of onset of disease (PID: postimmunization day): n = 25"}, "[2]": {"system": "myelin basic protein (MBP)", "assay": "Hippocampal organotypic cultures (HOC), in vitro model of myelination, MBP Western blot", "format": "cell-based", "conditions": "100 U/ml IFN-γ, 7 days, HOCs", "description": "HOCs, were prepared and maintained as described previously (Kunkler and Kraig (1997) J Cereb Blood Flow Metab. 17:26-43), and were maintained in vitro for 7 days before use. SAL at various concentrations was combined with 100 U/ml IFN-γ and added to the HOC cultures for 7 days. […] After 7 days of 100 U/ml IFN-γ exposure, the levels of MBP decreased approximately 80% in the HOCs (FIG. 29)."}, "[3]": {"system": "mice with EAE", "assay": "MOG35-55-induced EAE, CNS delivery of INF-γ at the recovery stage (doxycycline withdrawn at PID7)", "format": "in vivo", "conditions": "DOX− mice", "source_text": "Double transgenic mice that allow for temporally regulated delivery of INF-γ to the CNS (Lin et al., J Neurosci 24:10074-10083 (2004)) were used to assess the role of INF-γ in the pathogenesis of EAE. GFAP/tTA; TRE/IFN-γ double transgenic mice, as described in Example 1 were used to determine the effect of INF-γ on the demyelination caused by EAE. All mice were fed doxycycline from the day of conception to repress the expression of INF-γ, and were immunized with myelin oligodendrocyte protein (MOG35-55) to induce EAE. At day 7 postimmunization (PID7), doxycycline was withdrawn from the experimental group (PID7 DOX−).\nThe level of INF-γ was determined in the control (DOX+) and the PID7 DOX− mice using an ELISA immunoassay as described in Example 1, and the severity of the disease was assessed as a function of a clinical score. Clinical severity scores were recorded daily according to a 0-5 point scale, where 0=healthy, 1=flaccid tail, 2=ataxia and/or paresis of hind limbs, 3=paralysis of hind limbs and/or paresis of forelimbs, 4=tetraparalysis, and 5=moribund or dead.\nThe spinal cord from DOX+ and DOX− animals with EAE was immunostained for MBP, and the remyelination of axons was evaluated. The number of oligodendrocytes was determined in the spine from DOX+ and DOX− mice as the number of CC1 positive cells. Axonal damage was evaluated by immunostaining of non-phosphorylated neurofilament-H. Antibodies to non-phosphorylated neurofilament-H Were SMI32 diluted to 1:1000 and obtained from Sternberger Monoclonals."}, "[4]": {"system": "rat oligodendrocytes", "assay": "IFN-γ-induced apoptosis in cultured rat oligodendrocytes (TUNEL/CNP, caspase-3 activity)", "format": "cell-based", "description": "To test whether apoptosis of oligodendrocytes that is induced by INF-γ affects ER stress, the effect on the morphology, the degree of apoptosis and the expression of ER markers was studied in a culture of oligodendrocyte precursor cells (OPC). Oligodendrocyte progenitors were cultured from neonatal rat brains (Baerwald, et al. (1998) J. Neurosci. Res. 52: 230-239). A mixed glial culture was grown in flasks in medium containing 10% fetal bovine serum (FBS), and when the astrocyte layer became confluent (10-14 days), oligodendrocyte progenitors were separated from astrocytes and microglia using an orbital shaker. Cells, greater than 95% of which were A2B5 positive, GFAP negative and CD11b negative, were cultured in 0.5% FBS containing medium, which also contained PDGF (10 ng/ml) and FGF (5 ng/ml) (both from R&D Systems, Minneapolis, Minn.). Then cells were switched to 0.5% FBS medium without PDGF and FGF for differentiation. […]\nThe level of apoptosis of the OPC cells was determined by double staining CNP (1:200; Sternberger Monoclonals, Lutherville, Md.) and TUNEL using the ApopTag Kit (Serologicals Corp., Norcross, Calif.) and following the manufacturer's instructions. Apoptosis was also evaluated by measuring the activity of caspase-3 in oligodendrocyte lysates using the Fluorimetric Caspase 3 Assay Kit (Sigma, St. Louis, Mo.), according to the manufacturer's instructions."}},
  "note": "Where “and” joins values, the source holds several entries; their conditions need not be identical. Equal values may be shown once.",
  "data": [
    {"molecule": "IFN-γ: pleotropic cytokine secreted by activated T lymphocytes and natural killer cells; recombinant rat IFN-γ added to cultures or transgenically expressed in mouse CNS (protein, UniProt P01581 23-156, looked up) Interferon gamma: QGTLIESLESLKNYFNSSSMDAMEGKSLLLDIWRNWQKDGNTKILESQIISFYLRLFEVLKDNQAISNNISVIESHLITNFFSNSKAKKDAFMSIAKFEVNNPQIQHKAVNELIRVIHQLSPESSLRKRKRSRC", "values": [
      {"measurement": "Incidence of death", "setting": "[1]; DOX− double mice (PERK+/+)", "value": "0/25"},
      {"measurement": "Mean of maximum clinical score (mean ± S.D.)", "setting": "[1]; DOX− double mice (PERK+/+)", "value": "1.63 ± 0.51"},
      {"measurement": "Day of onset of disease (PID: postimmunization day)", "setting": "[1]; DOX− double mice (PERK+/+)", "value": "14.7 ± 1.4"},
      {"measurement": "Incidence of hind limb paralysis", "setting": "[1]; DOX− double mice (PERK+/+), listed as INF-γ", "value": "2 of 25 and 2/25"},
      {"measurement": "MBP mRNA level in the spinal cord versus age-matched naive mice", "setting": "[1]; DOX− double mice, PID17, DOX+ double mice decreased by 30%", "value": "not significantly decreased"},
      {"measurement": "Incidence of death", "setting": "[1]; DOX− triple mice (PERK+/−)", "value": "3/25"},
      {"measurement": "Incidence of hind limb paralysis", "setting": "[1]; DOX− triple mice (PERK+/−)", "value": "18/25"},
      {"measurement": "Mean of maximum clinical score (mean ± S.D.)", "setting": "[1]; DOX− triple mice (PERK+/−)", "value": "2.71 ± 1.11"},
      {"measurement": "Day of onset of disease (PID: postimmunization day)", "setting": "[1]; DOX− triple mice (PERK+/−)", "value": "13.6 ± 0.8"},
      {"measurement": "decrease of MBP levels", "setting": "[2]", "value": "approximately 80%"},
      {"measurement": "mean maximum clinical score", "setting": "[3]; PID17, 0-5 point scale, DOX+ 2.66±0.80", "value": "2.69±0.69"},
      {"measurement": "mice that developed hind limb paralysis", "setting": "[3]; PID17, control twenty of 25", "value": "24 of 30"},
      {"measurement": "mice with hind limb paralysis that continued to suffer from the paralysis", "setting": "[3]; PID50", "value": "12/24"},
      {"measurement": "clinical score", "setting": "[3]; PID 50, control DOX+ less than 1", "value": "~2"},
      {"measurement": "caspase-3 activity in the cell lysates", "setting": "[4]; 70 U/ml IFN-γ", "value": "markedly increased"},
      {"measurement": "TUNEL and CNP double labeling (apoptosis)", "setting": "[4]; 70 U/ml IFN-γ for 48 h, oligodendrocytes differentiated 5 days", "value": "induced apoptosis in a significant number of oligodendrocytes"}
    ]}
  ]
}
